According to article PMC4807281, “Glutathionylation of the Bacterial Hsp70 Chaperone DnaK Provides a Link between Oxidative Stress and the Heat Shock Response” (The Journal of Biological Chemistry, 2016):

Target: Cys15 (UniProt position 15, GTTNSCVAIMD)
Test: UV-vis
Settings: 25 °C; 100 mM KCl, 5 mM MgCl2 (plus KOH added during titration); Buffer B: 50 mM Tris-HCl, pH 7.5, 100 mM KCl, 5 mM MgCl2. The pH was raised by stepwise addition of 6 N KOH in Buffer B.; Reduced (free thiol) DnaK with no nucleotide or peptide added (apo state), 15 μM protein

Chaperone protein DnaK (Hsp70) (Escherichia coli)
pKa: about 12
